# Measured values: PMC10786891, “Massively parallel profiling of RNA-targeting CRISPR-Cas13d”
# Residue numbers refer to the chain shown, from its start.
# T1: EsCas13d, nuclease-dead (Eubacterium siraeum, UniProt B0MS50, R295A;H300A;R849A;H854A)
# T1 sequence: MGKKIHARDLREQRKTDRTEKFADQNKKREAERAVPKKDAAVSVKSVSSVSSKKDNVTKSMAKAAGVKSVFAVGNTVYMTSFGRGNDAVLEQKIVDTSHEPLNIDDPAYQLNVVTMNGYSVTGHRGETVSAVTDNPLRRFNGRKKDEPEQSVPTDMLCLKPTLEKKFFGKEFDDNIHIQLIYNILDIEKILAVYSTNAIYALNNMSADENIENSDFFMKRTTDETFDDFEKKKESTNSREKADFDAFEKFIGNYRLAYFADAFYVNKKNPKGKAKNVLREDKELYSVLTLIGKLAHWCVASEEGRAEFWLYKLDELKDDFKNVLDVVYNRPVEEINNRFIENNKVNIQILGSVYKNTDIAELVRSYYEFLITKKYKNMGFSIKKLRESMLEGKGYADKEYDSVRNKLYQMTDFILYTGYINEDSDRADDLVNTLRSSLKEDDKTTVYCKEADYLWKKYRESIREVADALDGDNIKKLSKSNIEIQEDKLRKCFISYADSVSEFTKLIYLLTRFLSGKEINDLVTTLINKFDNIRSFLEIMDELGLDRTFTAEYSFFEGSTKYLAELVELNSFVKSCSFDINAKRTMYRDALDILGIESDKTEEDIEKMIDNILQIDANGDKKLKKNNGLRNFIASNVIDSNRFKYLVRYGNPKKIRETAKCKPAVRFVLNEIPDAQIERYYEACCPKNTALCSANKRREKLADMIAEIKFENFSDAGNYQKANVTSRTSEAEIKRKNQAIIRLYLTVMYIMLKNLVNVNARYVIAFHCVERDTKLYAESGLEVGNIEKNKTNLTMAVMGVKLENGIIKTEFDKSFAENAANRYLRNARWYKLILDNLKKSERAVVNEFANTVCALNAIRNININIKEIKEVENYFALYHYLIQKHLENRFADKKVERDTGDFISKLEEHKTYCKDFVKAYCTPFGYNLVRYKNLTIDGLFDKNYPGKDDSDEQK
# B1: target 2 MT 5'PFS AUC 3'PFS CUA (mixed)
# RNA 1: CACCCGUGCAAAAUUGCAGGGGUCUAAAACCUUCUCCAAAUUGUUUCAUCCU
# RNA 2: GGGAAUGGAUCCACAUCUACGAAUUCAUCAGGAUGAAACAAUUUGGAGAAGCUAAGAUCGGAAGAGCACACGU
# B2: target 2 MT 5'PFS UUA 3'PFS CGC (mixed)
# RNA 1: B1 RNA 1
# RNA 2: B1 RNA 2 with A27U, C29A, U53G, A54C
# B3: target 2 MT 5'PFS AGU 3'PFS CAG (mixed)
# RNA 1: B1 RNA 1
# RNA 2: B1 RNA 2 with U28G, C29U, U53A, A54G
# B4: target 2 MT 5'PFS UAG 3'PFS UAG (mixed)
# RNA 1: B1 RNA 1
# RNA 2: B1 RNA 2 with A27U, U28A, C29G, C52U, U53A, A54G
# B5: target 2 MT 5'PFS UUA 3'PFS AGC (mixed)
# RNA 1: B1 RNA 1
# RNA 2: B1 RNA 2 with A27U, C29A, C52A, U53G, A54C
# B6: target 2 MT 5'PFS AGA 3'PFS CAU (mixed)
# RNA 1: B1 RNA 1
# RNA 2: B1 RNA 2 with U28G, C29A, U53A, A54U
# B7: target 2 MT 5'PFS UAG 3'PFS UAC (mixed)
# RNA 1: B1 RNA 1
# RNA 2: B1 RNA 2 with A27U, U28A, C29G, C52U, U53A, A54C
# B8: target 2 MT 5'PFS AGC 3'PFS ACA (mixed)
# RNA 1: B1 RNA 1
# RNA 2: B1 RNA 2 with U28G, C52A, U53C
# B9: target 2 MT 5'PFS GUU 3'PFS ACU (mixed)
# RNA 1: B1 RNA 1
# RNA 2: B1 RNA 2 with A27G, C29U, C52A, U53C, A54U
# B10: target 2 MT 5'PFS AGU 3'PFS CAU (mixed)
# RNA 1: B1 RNA 1
# RNA 2: B1 RNA 2 with U28G, C29U, U53A, A54U
# B11: target 2 MT 5'PFS UUA 3'PFS CGA (mixed)
# RNA 1: B1 RNA 1
# RNA 2: B1 RNA 2 with A27U, C29A, U53G
# B12: target 2 MT 5'PFS AGU 3'PFS CAC (mixed)
# RNA 1: B1 RNA 1
# RNA 2: B1 RNA 2 with U28G, C29U, U53A, A54C
# B13: target 2 MT 5'PFS AGC 3'PFS ACG (mixed)
# RNA 1: B1 RNA 1
# RNA 2: B1 RNA 2 with U28G, C52A, U53C, A54G
# B14: target 2 MT 5'PFS GUU 3'PFS ACC (mixed)
# RNA 1: B1 RNA 1
# RNA 2: B1 RNA 2 with A27G, C29U, C52A, U53C, A54C
# B15: target 2 MT 5'PFS AGA 3'PFS CAC (mixed)
# RNA 1: B1 RNA 1
# RNA 2: B1 RNA 2 with U28G, C29A, U53A, A54C
# B16: target 2 MT 5'PFS UAG 3'PFS UAA (mixed)
# RNA 1: B1 RNA 1
# RNA 2: B1 RNA 2 with A27U, U28A, C29G, C52U, U53A
# B17: target 2 MT 5'PFS GUU 3'PFS ACG (mixed)
# RNA 1: B1 RNA 1
# RNA 2: B1 RNA 2 with A27G, C29U, C52A, U53C, A54G
# B18: target 2 MT 5'PFS UCU 3'PFS UAA (mixed)
# RNA 1: B1 RNA 1
# RNA 2: B1 RNA 2 with A27U, U28C, C29U, C52U, U53A
# B19: target 2 MT 5'PFS AGA 3'PFS AGA (mixed)
# RNA 1: B1 RNA 1
# RNA 2: B1 RNA 2 with U28G, C29A, C52A, U53G
# B20: target 2 MT 5'PFS AUC 3'PFS CUU (mixed)
# RNA 1: B1 RNA 1
# RNA 2: B1 RNA 2 with A54U
# B21: target 2 MT 5'PFS AGA 3'PFS AGC (mixed)
# RNA 1: B1 RNA 1
# RNA 2: B1 RNA 2 with U28G, C29A, C52A, U53G, A54C
# B22: target 2 MT 5'PFS GUG 3'PFS ACU (mixed)
# RNA 1: B1 RNA 1
# RNA 2: B1 RNA 2 with A27G, C29G, C52A, U53C, A54U
# B23: target 2 MT 5'PFS UUA 3'PFS AGA (mixed)
# RNA 1: B1 RNA 1
# RNA 2: B1 RNA 2 with A27U, C29A, C52A, U53G
# B24: target 2 MT 5'PFS GUU 3'PFS ACA (mixed)
# RNA 1: B1 RNA 1
# RNA 2: B1 RNA 2 with A27G, C29U, C52A, U53C
# B25: target 2 MT 5'PFS UUA 3'PFS CGG (mixed)
# RNA 1: B1 RNA 1
# RNA 2: B1 RNA 2 with A27U, C29A, U53G, A54G
# B26: target 2 MT 5'PFS UCU 3'PFS UAC (mixed)
# RNA 1: B1 RNA 1
# RNA 2: B1 RNA 2 with A27U, U28C, C29U, C52U, U53A, A54C
# B27: target 2 MT 5'PFS AGC 3'PFS ACU (mixed)
# RNA 1: B1 RNA 1
# RNA 2: B1 RNA 2 with U28G, C52A, U53C, A54U
# B28: target 2 MT 5'PFS UUA 3'PFS AGG (mixed)
# RNA 1: B1 RNA 1
# RNA 2: B1 RNA 2 with A27U, C29A, C52A, U53G, A54G
# B29: target 2 MT 5'PFS AGA 3'PFS CAA (mixed)
# RNA 1: B1 RNA 1
# RNA 2: B1 RNA 2 with U28G, C29A, U53A
# B30: target 2 MT 5'PFS GUG 3'PFS CAC (mixed)
# RNA 1: B1 RNA 1
# RNA 2: B1 RNA 2 with A27G, C29G, U53A, A54C
# B31: target 2 MT 5'PFS AUC 3'PFS CUC (mixed)
# RNA 1: B1 RNA 1
# RNA 2: B1 RNA 2 with A54C
# B32: target 2 MT 5'PFS AGA 3'PFS CAG (mixed)
# RNA 1: B1 RNA 1
# RNA 2: B1 RNA 2 with U28G, C29A, U53A, A54G
# B33: target 2 MT 5'PFS AAU 3'PFS UCA (mixed)
# RNA 1: B1 RNA 1
# RNA 2: B1 RNA 2 with U28A, C29U, C52U, U53C
# B34: target 2 MT 5'PFS GUG 3'PFS CAG (mixed)
# RNA 1: B1 RNA 1
# RNA 2: B1 RNA 2 with A27G, C29G, U53A, A54G
# B35: target 2 MT 5'PFS CGC 3'PFS UUA (mixed)
# RNA 1: B1 RNA 1
# RNA 2: B1 RNA 2 with A27C, U28G, C52U
# B36: target 1 insC 3' of 22,insA 3' of 6 (mixed)
# RNA 1: CACCCGUGCAAAAAUGCAGGGGUCUAAAACUGAGCGGAUAACCUCUCUAUGG
# RNA 2: GGGAAUGGAUCCACAUCUACGAAUUCGUACCCAUAGAGAGGUUAUCCAGCUCACCGAGAUCGGAAGAGCACACGU
# B37: target 1 insG 3' of 14,insG 3' of 9 (mixed)
# RNA 1: B36 RNA 1
# RNA 2: GGGAAUGGAUCCACAUCUACGAAUUCGUACCAUAGAGAGGGUUAGUCCGCUCACCGAGAUCGGAAGAGCACACGU
# B38: target 1 complement block 2-7 (mixed)
# RNA 1: B36 RNA 1
# RNA 2: GGGAAUGGAUCCACAUCUACGAAUUCGUACCAUAGAGAGGUUAUGGCGAGACCGAGAUCGGAAGAGCACACGU
# Biological target: T1, EsCas13d, nuclease-dead
# Assay: crRNA (strand 1, pre-loaded); Mg2+; 40 mM Tris-HCl pH 7.5, 150 mM NaCl, 6 mM MgCl2, 1 mM DTT, 0.1% Tween-20, 0.2 mg/ml BSA; 25 C; 10 min per concentration, then washed
# Details: tags: His6-TwinStrep-SUMO cleaved; N-terminal SNAP kept (SNAP-Surface 488); label: 3' end held by stalled T7 RNA polymerase
row,Binder,Kd [nM]
1,B1,~90
2,B2,48 ± 10
3,B3,14.2 ± 3.1
4,B4,3.7 ± 0.4
5,B5,19.3 ± 2.2
6,B6,8 ± 1.9
7,B7,2.65 ± 0.29
8,B8,7.9 ± 3.2
9,B9,15.5 ± 1
10,B10,11.1 ± 2.7
11,B11,24 ± 4
12,B12,15 ± 5
13,B13,7.1 ± 0.9
14,B14,18.1 ± 3
15,B15,7.4 ± 1.6
16,B16,2.8 ± 0.4
17,B17,17.5 ± 1.4
18,B18,12.8 ± 3.2
19,B19,4.9 ± 0.7

row,Binder,Kd [nM]
1,B20,~90
2,B21,5.6 ± 1.2
3,B22,12.9 ± 0.7
4,B23,19.4 ± 3.2
5,B24,17.5 ± 2.3
6,B25,20.9 ± 2.1
7,B26,12.8 ± 2.5
8,B27,17 ± 6
9,B28,23.1 ± 3
10,B29,3.5 ± 0.8
11,B30,10.6 ± 1
12,B31,66 ± 25
13,B32,5.7 ± 0.8
14,B33,10.4 ± 3.5
15,B34,10.5 ± 0.8
16,B35,11.1 ± 2.5
17,B36,12.9 ± 0.9
18,B37,21.5 ± 1.5
19,B38,13.8 ± 0.7
